T1: truncated recombinant rat factor H protein SCR1-7
T1 chain: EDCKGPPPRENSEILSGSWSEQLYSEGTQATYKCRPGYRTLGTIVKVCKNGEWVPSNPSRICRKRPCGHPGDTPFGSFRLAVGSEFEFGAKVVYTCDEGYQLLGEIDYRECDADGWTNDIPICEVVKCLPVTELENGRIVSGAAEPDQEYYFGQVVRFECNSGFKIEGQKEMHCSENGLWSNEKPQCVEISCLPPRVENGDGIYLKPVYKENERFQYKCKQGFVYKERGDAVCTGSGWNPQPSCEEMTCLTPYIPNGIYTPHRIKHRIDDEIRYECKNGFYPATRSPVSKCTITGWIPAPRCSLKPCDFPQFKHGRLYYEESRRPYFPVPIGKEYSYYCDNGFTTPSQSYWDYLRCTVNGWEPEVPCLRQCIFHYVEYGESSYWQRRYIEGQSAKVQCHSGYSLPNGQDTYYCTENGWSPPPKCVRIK

T2: recombinant human FHp43, P08603
T2 chain: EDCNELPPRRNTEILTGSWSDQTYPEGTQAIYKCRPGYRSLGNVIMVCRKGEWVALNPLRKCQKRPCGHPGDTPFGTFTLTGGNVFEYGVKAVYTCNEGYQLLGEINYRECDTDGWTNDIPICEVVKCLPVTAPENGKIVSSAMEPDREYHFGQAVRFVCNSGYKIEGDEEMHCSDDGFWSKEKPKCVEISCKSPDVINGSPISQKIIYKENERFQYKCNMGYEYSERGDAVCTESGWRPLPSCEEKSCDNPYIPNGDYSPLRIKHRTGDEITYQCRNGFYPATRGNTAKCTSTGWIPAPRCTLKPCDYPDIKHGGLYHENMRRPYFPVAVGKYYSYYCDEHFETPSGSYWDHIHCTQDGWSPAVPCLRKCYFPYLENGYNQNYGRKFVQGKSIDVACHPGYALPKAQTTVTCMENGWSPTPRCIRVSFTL


What was measured:
[1] = target: T1, truncated recombinant rat factor H …
[2] = target: T2, recombinant human FHp43, P08603

Protein	cofactor activity (43 kDa a' cleavage band of the C3b alpha-chain, SDS-PAGE/autoradiography); concentration of rat FHSCR1-7 in the assay [1]	cofactor activity (43 kDa a' cleavage band of the C3b alpha-chain, SDS-PAGE/autoradiography); concentration of FHp43 in the assay [2]
rat Factor I (protein) KNTPASGQPQEDLVEQKCLLKNYTHHSCDKVFCQPWQKCIEGTCACKLPYQCPKAGTPVCATNGRGYPTYCHLKSFECLHPEIKFSNNGTCTAEEKFNVSLIYGSTDTEGIVQVKLVDQDEKMFICKNSWSTVEANVACFDLGFPLGVRDIQGRFNIPVNHKINSTECLHVRCQGVETSLAECTFTKKSSKAPHGLAGVVCYTQDADFPTSQSFQCVNGKRIPQEKACDGVNDCGDQSDELCCKGCRGQAFLCKSGVCIPNQRKCNGEVDCITGEDESGCEEDKKNKIHKGLARSDQGGETEIETEETEMLTPDMDTERKRIKSLLPKLSCGVKRNTHIRRKRVVGGKPAEMGDYPWQVAIKDGDRITCGGIYIGGCWILTAAHCVRPSRYRNYQVWTSLLDWLKPNSQLAVQGVSRVVVHEKYNGATYQNDIALVEMKKHPGKKECELINSVPACVPWSPYLFQPNDRCIISGWGREKDNQKVYSLRWGEVDLIGNCSRFYPGRYYEKEMQCAGTSDGSIDACKGDSGGPLVCKDVNNVTYVWGIVSWGENCGKPEFPGVYTRVASYFDWISYYVGRPLVSQYNV	exhibit cofactor activity even at low concentrations (10 mM) when incubated with C3b and factor I of the corresponding species	–
human Factor I (protein) KVTYTSQEDLVEKKCLAKKYTHLSCDKVFCQPWQRCIEGTCVCKLPYQCPKNGTAVCATNRRSFPTYCQQKSLECLHPGTKFLNNGTCTAEGKFSVSLKHGNTDSEGIVEVKLVDQDKTMFICKSSWSMREANVACLDLGFQQGADTQRRFKLSDLSINSTECLHVHCRGLETSLAECTFTKRRTMGYQDFADVVCYTQKADSPMDDFFQCVNGKYISQMKACDGINDCGDQSDELCCKACQGKGFHCKSGVCIPSQYQCNGEVDCITGEDEVGCAGFASVTQEETEILTADMDAERRRIKSLLPKLSCGVKNRMHIRRKRIVGGKRAQLGDLPWQVAIKDASGITCGGIYIGGCWILTAAHCLRASKTHRYQIWTTVVDWIHPDLKRIVIEYVDRIIFHENYNAGTYQNDIALIEMKKDGNKKDCELPRSIPACVPWSPYLFQPNDTCIVSGWGREKDNERVFSLQWGEVKLISNCSKFYGNRFYEKEMECAGTYDGSIDACKGDSGGPLVCMDANNVTYVWGVVSWGENCGKPEFPGVYTKVANYFDWISYHVGRPFISQYNV	–	exhibit cofactor activity even at low concentrations (10 mM) when incubated with C3b and factor I of the corresponding species
